Test system: N-SMase mRNA
Test: N-SMase mRNA by Northern analysis and RT-PCR in transfected MG63 clones
Assay type: cell-based, human
Experimental: RNA was originally extracted from a single confluent (90%) T-75 flask using Trizol. […] Next, poly-A^+ RNA was extracted from 3 confluent T-75 flasks, loading 3.5 μg/lane. Northern gels were standard, using 1.2% agarose, 1×MOPS, and 6.5% formaldehyde. RNA was transferred to nylon membranes with a standard wick system. The cDNA probe was derived from the cDNA construct, pHH11. An EcoR-1/SpeI fragment, containing a three hundred base pair probe was prepared. This was radiolabeled with [^32P]-dCTP and the random primer labeling system.
Clone CC had no detectable N-SMase mRNA by Northern analysis, so RT-PCR was performed to quantitate the reduction. Compared to a control-transfected clone (WT), there was a 50% reduction in mRNA in clone CC (ribozyme). This was confirmed by western blot analysis of the transfected and control clones for N-SMase.

B1: N-SMase ribozyme: U1 snRNA-derived hammerhead antisense ribozyme targeting N-SMase mRNA, expressed from vector pNSMRz; stably transfected MG63 clones CC and C-B (nucleic acid, listed as Homo sapiens)
chain: AUACUUACCUGGCAGGGGAGAUACCAUGAUCACGAAGGUGGUUUUCCCAGGGCGAGGCUUAUCCAUUGGCCUCCGGAUGUGCUGACCCCUGCGAUUUCCCCAAAUGUGGGAAACUCGACUGCAGAAUAUGUCAUCAUAUUGCCUGAUGAGUCCGUGAGGACGAAACCUCUUCACAUGAAAAAGUGGGGCUGCGUUCGCGCUUCCCCG
N-SMase mRNA by Northern analysis (clone CC): no detectable | Reduction in N-SMase mRNA by RT-PCR (clone CC compared to a control-transfected clone (WT)): 50%
